Experimental data from US20220031841A1 (ABSCI, published 2022).

Columns and labels:
Experiment in all cases: HuProt protein array, F635 z-score
[1] = biological target: T1, Inorganic pyrophosphatase (PPA1) (human, UniProt Q15181 2-289)
T1 construct: The array carries full-length recombinant human proteins expressed in S. cerevisiae; also called Human PPA1
T1 sequence: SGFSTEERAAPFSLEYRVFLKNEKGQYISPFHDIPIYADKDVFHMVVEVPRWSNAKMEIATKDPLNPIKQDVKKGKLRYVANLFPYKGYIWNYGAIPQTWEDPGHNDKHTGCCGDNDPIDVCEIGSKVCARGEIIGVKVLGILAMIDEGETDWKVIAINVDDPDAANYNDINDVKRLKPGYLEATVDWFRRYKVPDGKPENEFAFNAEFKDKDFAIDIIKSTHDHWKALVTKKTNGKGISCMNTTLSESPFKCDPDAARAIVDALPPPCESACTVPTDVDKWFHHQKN
Excerpt: (§1) Large scale protein arrays are versatile and sensitive platforms for antibody specificity evaluation. They can be used for the evaluation of protein binding or affinity reagents that are widely employed in research and clinical applications. The microarray used in our target identification experiment provides the largest number of unique, full-length, individually purified human proteins on a single microscope slide. This allows thousands of interactions to be profiled in a high-throughput manner. The hill-length recombinant proteins are expressed in the yeast S. cerevisiae, purified, and printed on glass slides in duplicate along with a set of control proteins (GST, BSA, histones, IgG, etc.). Such microarray is not restricted to a particular type of surface coating, although the default is glass coated with ultra-thin nitrocellulose film for the non-covalent, yet irreversible, capture of active proteins to the surface. Fourteen Protein arrays were used for the antibody cross-reactivity assay of the samples. The antibodies were probed at […] on the arrays and incubated at room temperature for 1 hour. After probing, the arrays were washed according to the protocol and probed with Alexa-647-anti-human IgG […] specific secondary antibodies under conditions optimized for signal detection. The antibody-antigen binding score was calculated for each protein represented on the array and expressed as z-scores.
(§2) Antibody samples are probed on native HuProt arrays at 1 μg/ml and incubated at room temperature for 1 hour. After probing, the arrays are washed according to the standard protocols and probed with Alexa-647-anti-human IgG Fc gamma specific secondary antibodies under conditions optimized for signal detection.
(§3) Z score is the average Z score of the duplicate spots of a given protein (each protein is printed in duplicate on a HuProt™ array). The Z score of each spot on a given array is calculated according to the equation: […]

[2] = biological target: T2, Melanoma-associated antigen 3 (MAGE-A3) (human, UniProt P43357 1-314)
T2 construct: The array carries full-length recombinant human proteins expressed in S. cerevisiae; also called Human MAGE-A3
Excerpt: as §1, §2, §3

[3] = biological target: T3, Src homology 2 (SH2) domain containing inositol polyphosphate 5-phosphatase 1 (SHIP1) (human, UniProt Q92835 1-1189)
T3 construct: The array carries full-length recombinant human proteins expressed in S. cerevisiae, purified and printed on glass slides; also called INPP5D; INPP5D/SHIP1
T3 sequence: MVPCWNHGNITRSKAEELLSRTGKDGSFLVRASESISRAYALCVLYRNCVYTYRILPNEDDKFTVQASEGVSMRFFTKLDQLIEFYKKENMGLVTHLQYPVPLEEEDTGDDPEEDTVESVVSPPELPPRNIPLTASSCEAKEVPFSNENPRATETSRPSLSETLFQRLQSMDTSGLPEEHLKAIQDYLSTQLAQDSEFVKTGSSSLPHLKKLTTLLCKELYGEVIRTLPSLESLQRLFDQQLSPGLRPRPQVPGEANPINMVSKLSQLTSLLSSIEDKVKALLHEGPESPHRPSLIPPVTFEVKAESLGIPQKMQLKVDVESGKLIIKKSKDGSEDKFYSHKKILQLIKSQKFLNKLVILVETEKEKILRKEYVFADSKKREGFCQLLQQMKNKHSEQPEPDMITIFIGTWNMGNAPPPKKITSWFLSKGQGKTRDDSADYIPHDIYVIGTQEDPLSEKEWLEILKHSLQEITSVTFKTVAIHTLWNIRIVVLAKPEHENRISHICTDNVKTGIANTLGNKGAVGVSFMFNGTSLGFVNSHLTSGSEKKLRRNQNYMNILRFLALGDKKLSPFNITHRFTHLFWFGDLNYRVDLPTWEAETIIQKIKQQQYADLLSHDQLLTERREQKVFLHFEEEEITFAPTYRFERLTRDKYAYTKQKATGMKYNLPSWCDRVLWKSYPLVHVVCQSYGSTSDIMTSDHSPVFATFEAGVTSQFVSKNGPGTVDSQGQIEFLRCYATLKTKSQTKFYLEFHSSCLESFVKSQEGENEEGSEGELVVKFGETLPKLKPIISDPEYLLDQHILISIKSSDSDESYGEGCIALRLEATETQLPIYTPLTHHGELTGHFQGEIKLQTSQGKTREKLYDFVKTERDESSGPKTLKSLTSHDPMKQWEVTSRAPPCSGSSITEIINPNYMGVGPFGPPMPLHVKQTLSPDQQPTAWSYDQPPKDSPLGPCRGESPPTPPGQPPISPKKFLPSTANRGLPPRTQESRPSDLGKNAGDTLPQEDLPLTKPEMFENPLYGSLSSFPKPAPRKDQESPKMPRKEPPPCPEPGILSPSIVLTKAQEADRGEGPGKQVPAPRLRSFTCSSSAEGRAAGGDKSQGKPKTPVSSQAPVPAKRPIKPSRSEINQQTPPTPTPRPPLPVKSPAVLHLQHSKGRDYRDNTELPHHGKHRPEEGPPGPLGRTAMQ
Excerpt: as §1, §2, §3

[4] = biological target: T4, Chromobox protein homolog 5 (CBX5) (human, UniProt P45973 1-191)
T4 construct: The array carries full-length recombinant human proteins expressed in S. cerevisiae; also called Human Chromobox protein homolog 5
Excerpt: as §1, §2, §3

Measured: binding result

T2 sequence (P43357 whole entry): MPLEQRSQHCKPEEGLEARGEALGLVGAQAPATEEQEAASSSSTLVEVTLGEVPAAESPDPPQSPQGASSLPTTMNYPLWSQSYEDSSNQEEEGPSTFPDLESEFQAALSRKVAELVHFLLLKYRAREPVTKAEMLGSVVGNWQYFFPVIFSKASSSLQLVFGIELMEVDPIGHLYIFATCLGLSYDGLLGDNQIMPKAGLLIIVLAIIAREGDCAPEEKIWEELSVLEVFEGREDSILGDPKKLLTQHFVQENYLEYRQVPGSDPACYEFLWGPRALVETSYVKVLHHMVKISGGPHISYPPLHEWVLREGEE
T4 sequence (P45973 whole entry): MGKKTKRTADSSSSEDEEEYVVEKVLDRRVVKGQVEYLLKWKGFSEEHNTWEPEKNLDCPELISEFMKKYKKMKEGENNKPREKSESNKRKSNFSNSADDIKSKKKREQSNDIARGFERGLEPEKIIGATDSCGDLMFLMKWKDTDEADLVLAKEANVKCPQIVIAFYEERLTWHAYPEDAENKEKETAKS

B1: TMEL1012 (antibody, V domains shown)
VH: PLQLQESGPGLVKPSETLSLTCTVSGDSITTTYYWGWIRQPPGKGLEWIASIYFTGSTFHNPSLKSRVTMSVDTSKNQFSLNLSSVTAADTAVYYCARRVGNWNYVWFDPWGQGTLVSVSS
VL: AYVLTQPPSVSVAPGQTARMTCGGNNIGSKSVHWYRQRPGQAPVLVVYDDTDRPSGIPERFSGSNSGNTATLTISRVEAGDEADYYCQVWDTNSDHVVFGGGTKLTVLG
no binding (tested: 1 µg/ml): all assays above

B2: TMEL1009 (antibody, V domains shown)
VH: PVQLVQSGAEVKKPGSSVKVSCRASGGTFSNYGLNWVRQAPGQGLEWMGGIIPIFGSVNYAQKFQDRVTITADESTSTTYMDLNSLRSEDTAVYYCATERGHNMERAFDFWGQGTLVTVSS
VL: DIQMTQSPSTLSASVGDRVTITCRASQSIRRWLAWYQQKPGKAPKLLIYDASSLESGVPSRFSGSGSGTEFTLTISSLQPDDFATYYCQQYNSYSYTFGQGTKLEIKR
no binding (tested: 1 µg/ml): [1] | [3] | [4]

B3: TMEL1013 (antibody, V domains shown)
VH: PVQLVQSGAEVKKPGSSVKVSCKASGGTFSSYTINWVRQAPGQGLEWMGRIIPILGVANYAQKFQGRVTITADKSTSTAYMDLSSLRSEDTAVYYCAREWERAFDYWGQGTLVTVSS
VL: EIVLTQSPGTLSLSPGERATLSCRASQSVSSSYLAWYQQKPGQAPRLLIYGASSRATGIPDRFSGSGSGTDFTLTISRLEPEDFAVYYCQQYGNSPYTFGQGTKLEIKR
no binding (tested: 1 µg/ml): [1] | [3] | [4]

B4: TMEL1004 (antibody, V domains shown)
VH: QITLKESGPTLVKPTQTLTLTCTFSGFSLNTPGVGVGWIRQPPGKALEWLALIYWDDDKRYRPSLESRLTITKDTSKNHVVLTMTNMDPVDTATYFCAHKNLQYSEWFDPWGQGTLVIVSS
VL: EMVLTQSPATLSLSPGERATLSCRASQSVSRNSLAWYQQRPGQTPRLLIYGASSRATGIPDRFSGSGSGTDFTLIISRLEPEDFAVYFCLQYDESPYTFGQGAKLEIKR
no binding (tested: 1 µg/ml): all assays above

B5: TMEL1007 (antibody, V domains shown)
VH: HVHLVQSGAEVKKPGSSVKVSCTASGGSFSSNPISWVRQAPGHGLQWMGGFVPLFGTANYAPSFHGRLTITADESTSTTYMELNSLRSEDSAVYYCARDFNWNFDFWGQGTLVTVSS
VL: QSALTQPASVSGSPGQSITISCTGTSSDIGSYNLVSWYRQYPGKAPKLMIYEVNKRPSGVSNRFSGSKSGNTASLTISGLQAEDEADYYCCSYAGTTTFVIFGRGTKLTVLG
notes: It was detected with an anti-human IgG Fc gamma secondary antibody
no binding (tested: 1 µg/ml): all assays above

B6: TMEL1014 (antibody, V domains shown)
VH: SVQLVESGGGVVQPGRSLRLSCAASGFTFSSYTMHWVRQAPGKGLEWVALISYDGSNKYYADSVKGRFTISRDNPKNTLYLQMNSLRVEDTAVYYCARDWTLGYWGQGTLVTVSS
VL: VSSELTQDPAVSVALGQTVRITCQGDSLRNYYANWYQQKPGQAPILVIYDKNNRPSGIPDRFSGSSSGNTASLTITGAQAEDEADYYCNSRDSSGYHLVFGGGTKLTVLG
notes: as for B5
no binding (tested: 1 µg/ml): [1] | [3] | [4]

B7: TMEL1010 (antibody, V domains shown)
VH: QVQLVQSGAEVKKPGASVKVSCKASGYTFSSYGISWVRQAPGQGLEWMGWISAYNGNTNYAKKLQGRVTMTTDTSTSTAYLELRSLRSDDTAVYYCARGDGPFDYWGQGTLVTVSS
VL: EIVMTQSPATLSVSPGERATLSCWASQSVSSSLAWYQQKPGQAPRLLMYGASNRATGIPARFSGSGSGTEFTLTISSLQSEDFAVYYCQQYNKWPPDTFGQGTKLEIKR
notes: as for B5
no binding (tested: 1 µg/ml): [2] | [3] | [4]

B8: TMEL1002 (antibody, V domains shown)
VH: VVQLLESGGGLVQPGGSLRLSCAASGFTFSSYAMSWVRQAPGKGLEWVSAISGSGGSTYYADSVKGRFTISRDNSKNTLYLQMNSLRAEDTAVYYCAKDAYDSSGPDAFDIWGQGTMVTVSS
VL: ASALTQPASVSGSPGQSITISCTGTSSDVGDYNYVSWYQQHPGKAPKLMIYDVSNRPSGVSNRFSGSKSGNTASLTISGLQAEDEADYYCSSYTSSSTLVFGGGTKLTVLG
no binding (tested: 1 µg/ml): all assays above

B9: TMEL1011 (antibody, V domains shown)
VH: PVQLVQSGAEVKKPGSSVKVSCKASGGTFSSYSFNWVRQAPGQGLEWMARIIPILGLANYAQKFQGRVTLTADESTSTAYMELSSLRSEDTAIFYCAGMVLGQLGFDPWGQGTLVTVSS
VL: QFMLTQPHSVSESPGRTVTISCTRSSGSIARNYVHWYQHRPGSSPTTVIYEDDQRPSGVPDRFSGSIDSSSNSASLTISGLKPEDEADYFCQSYDSNIWVFGGGTKLTVLG
notes: as for B5
no binding (tested: 1 µg/ml): all assays above

B10: TMEL1008 (antibody, V domains shown)
VH: QVQLVQSGAEVKKPGSSVKVSCKASGGTFNRDGIIWVRQAPGQGLEWMGRIIPILGIANYAQKFQGRVTIIADKSTSTAYMELSSLRSEDTAVYYCARESEVGRGMDVWGQGTTVTVSS
VL: ASALTQPASVSGSPGQSITISCTGTSSDVGDYNYVSWYQQHPGKAPKLMIYDVSNRPSGVSHRFSGSKSGNTASLTISGLQAEDEADYYCSSYTISSTLGVFGPGTKVTVLG
notes: as for B5
no binding (tested: 1 µg/ml): [1] | [3] | [4]
